Data reported in paper doi:10.1101/2021.05.11.443658 (bioRxiv, 2021).

Target: the molecule itself
Experiment: non-reducing SDS-PAGE

B1: Thioredoxin-His-tagged OsbZIP47 full-length protein (natural protein, rice (Oryza sativa), UniProt Q5Z6N9 1-385, looked up)
chain: MAAHQGMAAATAADRFCLPRMAAAAAAASQVENWGDSGVIVSSPFTDDTSTDLDDSADKHHLHALVGGGDGGDDAGEQRGADSSAVSKERRGDQKMQRRLAQNREAARKSRMRKKAYIQQLESSRSKLMHLEQELQRARQQGIFIATGGSGDHGHSIGGNGTLAFDLEYARWLDEHQRHINDLRVALNAQMSDDELCELVDAVMMHYDQVFRLKSFATKSDVFHVLSGMWMSPAERFFMWLGGFRSSELLKVLASHLEPLTDQQLMGICNLQQSSQQAEDALSQGMEALQQTLGDTLVSAAATVVSGGGGADNVTNYMGQMAIAMAKLTTLENFLRQADLLRHQTLQQMHRILTTRQAARALLVISDYFSRLRALSSLWLARPRD
B1: binds.
